Marks after values point to notes of the source that are not given here.
Columns and labels:
[1] = target: T1, FIT-NP (FIT N-terminal plus proline-rich region) (Homo sapiens, UniProt Q9BQI5); test: Yeast two-hybrid screen of human brain cDNA library, bait FIT-NP; format: binding; details: for Number of clones: bait FIT-NP, human brain cDNA library, clones listed highest to lowest interacting strength; for strength of interaction with FIT: in yeast
T1 construct: expressed in transfected cells
T1 sequence (Q9BQI5 with tags, fused parts or gaps I33M/P40L/N43H/V56A/I186T/P191L/T195L/E211G/Q212H/I230V/T240A/N255T/I269V/G270A/P271T/S276A/V280A/L285P/N289S/A308T/K311T/T318A/S335T/T339A/P340S/N342I/A348T/L352P/P357S/T358A/DEL367-367/L371P/I397L/D402E/F403C/A409E/P432S/P434T/T437A/R454S/S455C/T456S): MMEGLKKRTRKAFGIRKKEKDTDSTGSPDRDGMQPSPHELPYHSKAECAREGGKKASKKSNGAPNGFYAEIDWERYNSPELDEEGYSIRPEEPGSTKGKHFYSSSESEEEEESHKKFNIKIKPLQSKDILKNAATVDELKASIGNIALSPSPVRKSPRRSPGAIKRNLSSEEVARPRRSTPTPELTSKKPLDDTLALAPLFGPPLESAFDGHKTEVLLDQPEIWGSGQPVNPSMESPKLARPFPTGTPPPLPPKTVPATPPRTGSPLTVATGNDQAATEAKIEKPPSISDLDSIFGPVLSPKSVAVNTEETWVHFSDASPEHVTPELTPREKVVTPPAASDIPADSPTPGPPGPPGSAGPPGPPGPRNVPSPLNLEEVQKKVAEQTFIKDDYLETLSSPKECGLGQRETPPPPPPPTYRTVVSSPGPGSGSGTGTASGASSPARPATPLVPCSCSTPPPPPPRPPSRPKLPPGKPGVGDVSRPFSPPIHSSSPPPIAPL
From the text: (§1) In order to perform these experiments, two truncated fragments of FIT were constructed to be used as baits in a yeast two-hybrid screen of a human brain cDNA library: one bait consisting of the N-terminal region plus the central proline-rich region, and the other bait consisting of the central proline-rich region alone. The inventors utilised a yeast two-hybrid system which incorporates modifications by Chevray and Nathans (1992), and Vidal et al. (1996) to screen a human brain cDNA library. FIT fragments were PCR amplified, purified and then cloned into an appropriate vector. Sense oligonucleotides for FIT-NP (5′-[…]-3′: SEQ ID NO:72), and FIT-PR (5′-[…]-3′: SEQ ID NO:73), with Sal1 restriction enzyme sites underlined, were used in conjunction with a common antisense oligonucleotide (5′-[…]-3′: SEQ ID NO:74), with the Not1 restriction enzyme site underlined.
(§2) Human brain cDNA inserts were prepared and cloned into the expression vector according to manufacturer's instructions.

melanocortin receptor = test: Feeding response to ICV injection of SHU9119 after three days of ODN or saline infusion; format: in vivo, Sprague Dawley rats; details: mean ± SEM
From the text: To further analyse the link between FIT and the melanocortin system, the feeding response of Sprague Dawley rats to an ICV injection of SHU9119, a melanocortin receptor antagonist and known feeding stimulator was investigated. After three days of FIT antisense treatment, jumbled oligonucleotide or saline infusion, responses were compared to rats receiving an ICV injection of saline vehicle rather than SHU9119.

[2] = target: T2, FIT-PR (FIT proline-rich region) (Homo sapiens, UniProt Q9BQI5); test: Yeast two-hybrid screen of human brain cDNA library, bait FIT-PR; format: binding; details: clones listed highest to lowest interacting strength
T2 construct: expressed in transfected cells
T2 sequence (Q9BQI5 with tags, fused parts or gaps N255T/I269V/G270A/P271T/S276A/V280A/L285P/N289S/A308T/K311T/T318A/S335T/T339A/P340S/N342I/A348T/L352P/P357S/T358A/DEL367-367/L371P/I397L/D402E/F403C/P432S/P434T/T437A/R454S/S455C/T456S): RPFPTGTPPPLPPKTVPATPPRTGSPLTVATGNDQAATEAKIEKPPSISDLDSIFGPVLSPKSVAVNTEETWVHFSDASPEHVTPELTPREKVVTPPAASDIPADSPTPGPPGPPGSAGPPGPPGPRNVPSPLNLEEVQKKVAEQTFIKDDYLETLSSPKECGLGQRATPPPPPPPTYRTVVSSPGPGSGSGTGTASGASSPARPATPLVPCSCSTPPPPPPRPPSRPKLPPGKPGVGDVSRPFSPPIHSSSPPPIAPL
From the text: as §1, with “To investigate the mechanism by which FIT regulates energy balance, neural proteins that interact with FIT were identified. In” for “In”
as §2

Row | Molecule | Number of clones [1] | Δ FI (melanocortin receptor; 48 hr food intake post minus pre injection) [g/g BW] | 48 hr FI post injection (melanocortin receptor; food intake relative to body weight, after ICV SHU9119 or vehicle injection) | 48 hr FI pre injection (melanocortin receptor; food intake relative to body weight, during ICV infusion, before SHU9119 or vehicle injection) [g/g BW] | strength of interaction with FIT [1] | Number of clones [2]
1 | MAD2: FIT interacting protein isolated from a human brain cDNA library | 1 |  |  |  |  | 
2 | SHU9119 |  | 0.02 ± 0.01 | 0.16 ± 0.01^a g/g BW | 0.14 ± 0.01 |  | 
3 | β-arrestin 1: FIT interacting protein isolated from a human brain cDNA library | 1 |  |  |  | slightly lesser strength | 
4 | RNA-binding protein EWS: FIT interacting protein isolated from a human brain cDNA library (protein, left off: large carriers) MASTDYSTYSQAAAQQGYSAYTAQPTQGYAQTTQAYGQQSYGTYGQPTDVSYTQAQTTATYGQTAYATSYGQPPTGYTTPTAPQAYSQPVQGYGTGAYDTTTATVTTTQASYAAQSAYGTQPAYPAYGQQPAATAPTRPQDGNKPTETSQPQSSTGGYNQPSLGYGQSNYSYPQVPGSYPMQPVTAPPSYPPTSYSSTQPTSYDQSSYSQQNTYGQPSSYGQQSSYGQQSSYGQQPPTSYPPQTGSYSQAPSQYSQQSSSYGQQSSFRQDHPSSMGVYGQESGGFSGPGENRSMSGPDNRGRGRGGFDRGGMSRGGRGGGRGGMGSAGERGGFNKPGGPMDEGPDLDLGPPVDPDEDSDNSAIYVQGLNDSVTLDDLADFFKQCGVVKMNKRTGQPMIHIYLDKETGKPKGDATVSYEDPPTAKAAVEWFDGKDFQGSKLKVSLARKKPPMNSMRGGLPPREGRGMPPPLRGGPGGPGGPGGPMGRMGGRGGDRGGFPPRGPRGSRGNPSGGGNVQHRAGDWQCPNPGCGNQNFAWRTECNQCKAPKPEGFLPPPFPPPGGDRGRGGPGGMRGGRGGLMDRGGPGGMFRGGRGGDRGGFRGGRGMDRGGFGGGRRGGPGGPPGPLMEQMGGRRGGRGGPGKMDKGEHRQERRDRPY | 1 |  |  |  |  | 
5 | α-1 subunit of the AP2 complex: FIT interacting protein isolated from a human brain cDNA library (protein, left off: large carriers) MPAVSKGDGMRGLAVFISDIRNCKSKEAEIKRINKELANIRSKFKGDKALDGYSKKKYVCKLLFIFLLGHDIDFGHMEAVNLLSSNKYTEKQIGYLFISVLVNSNSELIRLINNAIKNDLASRNPTFMCLALHCIANVGSREMGEAFAADIPRILVAGDSMDSVKQSAALCLLRLYKASPDLVPMGEWTARVVHLLNDQHMGVVTAAVSLITCLCKKNPDDFKTCVSLAVSRLSRIVSSASTDLQDYTYYFVPAPWLSVKLLRLLQCYPPPEDAAVKGRLVECLETVLNKAQEPPKSKKVQHSNAKNAILFETISLIIHYDSEPNLLVRACNQLGQFLQHRETNLRYLALESMCTLASSEFSHEAVKTHIDTVINALKTERDVSVRQRAADLLYAMCDRSNAKQIVSEMLRYLETADYAIREEIVLKVAILAEKYAVDYSWYVDTILNLIRIAGDYVSEEVWYRVLQIVTNRDDVQGYAAKTVFEALQAPACHENMVKVGGYILGEFGNLIAGDPRSSPPVQFSLLHSKFHLCSVATRALLLSTYIKFINLFPETKATIQGVLRAGSQLRNADVELQQRAVEYLTLSSVASTDVLATVLEEMPPFPERESSILAKLKRKKGPGAGSALDDGRRDPSSNDINGGMEPTPSTVSTPSPSADLLGLRAAPPPAAPPASAGAGNLLVDVFDGPAAQPSLGPTPEEAFLSELEPPAPESPMALLADPAPAADPGPEDIGPPIPEADELLNKFVCKNNGVLFENQLLQIGVKSEFRQNLGRMYLFYGNKTSVQFQNFSPTVVHPGDLQTQLAVQTKRVAAQVDGGAQVQQVLNIECLRDFLTPPLLSVRFRYGGAPQALTLKLPVTINKFFQPTEMAAQDFFQRWKQLSLPQQEAQKIFKANHPMDAEVTKAKLLGFGSALLDNVDPNPENFVGAGIIQTKALQVGCLLRLEPNAQAQMYRLTLRTSKEPVSRHLCELLAQQF | 8 |  |  |  | slightly lesser strength | 
6 | endophilin 1: FIT interacting protein isolated from a human brain cDNA library (protein, left off: large carriers) MSVAGLKKQFHKATQKVSEKVGGAEGTKLDDDFKEMERKVDVTSRAVMEIMTKTIEYLQPNPASRAKLSMINTMSKIRGQEKGPGYPQAEALLAEAMLKFGRELGDDCNFGPALGEVGEAMRELSEVKDSLDIEVKQNFIDPLQNLHDKDLREIQHHLKKLEGRRLDFDYKKKRQGKIPDEELRQALEKFDESKEIAESSMFNLLEMDIEQVSQLSALVQAQLEYHKQAVQILQQVTVRLEERIRQASSQPRREYQPKPRMSLEFPTGDSTQPNGGLSHTGTPKPSGVQMDQPCCRALYDFEPENEGELGFKEGDIITLTNQIDENWYEGMLHGHSGFFPINYVEILVALPH | 14 |  |  |  | very strongly | 12
7 | endophilin 3: FIT interacting protein isolated from a human brain cDNA library (protein, left off: large carriers) MSVAGLKKQFHKASQLFSEKISGAEGTKLDDEFLDMERKIDVTNKVVAEILSKTTEYLQPNPAYRAKLGMLNTVSKIRGQVKTTGYPQTEGLLGDCMLKYGKELGEDSTFGNALIEVGESMKLMAEVKDSLDINVKQTFIDPLQLLQDKDLKEIGHHLKKLEGRRLDYDYKKKRVGKIPDEEVRQAVEKFEESKELAERSMFNFLENDVEQVSQLAVFIEAALDYHRQSTEILQELQSKLQMRISAASSVPRREYKPRPVKRSSSELNGVSTTSVVKTTGSNIPMDQPCCRGLYDFEPENQGELGFKEGDIITLTNQIDENWYEGMIHGESGFFPINYVEVIVPLPQ | 7 |  |  |  | very strongly | 2
8 | α-2 subunit of the AP2 complex: FIT interacting protein isolated from a human brain cDNA library (protein, left off: large carriers) MPAVSKGDGMRGLAVFISDIRNCKSKEAEIKRINKELANIRSKFKGDKALDGYSKKKYVCKLLFIFLLGHDIDFGHMEAVNLLSSNRYTEKQIGYLFISVLVNSNSELIRLINNAIKNDLASRNPTFMGLALHCIASVGSREMAEAFAGEIPKVLVAGDTMDSVKQSAALCLLRLYRTSPDLVPMGDWTSRVVHLLNDQHLGVVTAATSLITTLAQKNPEEFKTSVSLAVSRLSRIVTSASTDLQDYTYYFVPAPWLSVKLLRLLQCYPPPDPAVRGRLTECLETILNKAQEPPKSKKVQHSNAKNAVLFEAISLIIHHDSEPNLLVRACNQLGQFLQHRETNLRYLALESMCTLASSEFSHEAVKTHIETVINALKTERDVSVRQRAVDLLYAMCDRSNAPQIVAEMLSYLETADYSIREEIVLKVAILAEKYAVDYTWYVDTILNLIRIAGDYVSEEVWYRVIQIVINRDDVQGYAAKTVFEALQAPACHENLVKVGGYILGEFGNLIAGDPRSSPLIQFHLLHSKFHLCSVPTRALLLSTYIKFVNLFPEVKPTIQDVLRSDSQLRNADVELQQRAVEYLRLSTVASTDILATVLEEMPPFPERESSILAKLKKKKGPSTVTDLEDTKRDRSVDVNGGPEPAPASTSAVSTPSPSADLLGLGAAPPAPAGPPPSSGGSGLLVDVFSDSASVVAPLAPGSEDNFARFVCKNNGVLFENQLLQIGLKSEFRQNLGRMFIFYGNKTSTQFLNFTPTLICSDDLQPNLNLQTKPVDPTVEGGAQVQQVVNIECVSDFTEAPVLNIQFRYGGTFQNVSVQLPITLNKFFQPTEMASQDFFQRWKQLSNPQQEVQNIFKAKHPMDTEVTKAKIIGFGSALLEEVDPNPANFVGAGIIHTKTTQIGCLLRLEPNLQAQMYRLTLRTSKEAVSQRLCELLSAQF | 1 |  |  |  | slightly lesser strength | 

Source: patent US20080105961A1, “Ligands of the Molecule Fit (Agt-121) and their Pharmaceutical Use” (priority 2004, published 2008)
